In patent US6008029A, “Purified coprinus laccases and nucleic acids encoding the same” (Novo Nordisk Biotech Inc., priority 1996, dated 1999):

Tests used:
[1] = substrate: CCn1c(=NN=c2sc3cc(S(=O)(=O)O)ccc3n2CC)sc2cc(S(=O)(=O)O)ccc21; test: purified protein, by the assay type; settings: other: pH 5.3, ABTS oxidation, 20.0 °C
[2] = substrate: COc1cc(C=NN=Cc2cc(OC)c(O)c(OC)c2)cc(OC)c1O; test: purified protein, by the assay type; type: biochemical, Coprinus cinereus; settings: other: pH 5.3, syringaldazine oxidation, 20.0 °C
Procedure: Laccase activity is determined by syringaldazine oxidation. Specifically, 60 μl of syringaldazine stock solution (0.28 mM in 50% ethanol) and 20 μl of laccase sample are mixed with 0.8 ml of preheated Britton-Robinson buffer solution and incubated at 20° C. The oxidation is monitored at 530 nm over 5 minutes and activity is expressed as "SOU" μmole syringaldazine oxidized per minute ("SOU"). Britton-Robinson buffers with various pHs are used.
The values for Km and kcat are determined by fitting initial rates (v=ΔA/Δt/Δe; Δe: extinction coefficient change), laccase concentration (E), and substrate concentration (S) into v=kcat *E*S/(Km +S) with the Prizm nonlinear regression software (GraphPad, San Diego, Calif.).

B1: recombinant Coprinus cinereus laccase Lcc1 (SEQ ID NO:27), expressed in Aspergillus oryzae (Coprinopsis cinerea) (protein)
chain: QIVNSVDTMTLTNANVSPDGFTRAGILVNGVHGPLIRGGKNDNFELNVVNDLDNPTMLRPTSIHWHGLFQRGTNWADGADGVNQCPISPGHAFLYKFTPAGHAGTFWYHSHFGTQYCDGLRGPMVIYDDNDPHAALYDEDDENTIITLADWYHIPAPSIQGAAQPDATLINGKGRYVGGPAAELSIVNVEQGKKYRMRLISLSCDPNWQFSIDGHELTIIEVDGQLTEPHTVDRLQIFTGQRYSFVLDANQPVDNYWIRAQPNKGRNGLAGTFANGVNSAILRYAGAANADPTTSANPNPAQLNEADLHALIDPAAPGIPTPGAADVNLRFQLGFSGGRFTINGTAYESPSVPTLLQIMSGAQSANDLLPAGSVYELPRNQVVELVVPAGVLGGPHPFHLHGHAFSVVRSAGSSTYNFVNPVKRDVVSLGVTGDEVTIRFVTDNPGPWFFHCHIEFHLMNGLAIVFAEDMANTVDANNPPVEWAQLCEIYDDLPPEATSIQTVVRRAEPTGFSAKFRREGL
Question: What does the source list for B1?
Answer: Km [1]: 23 ± 3 µM; kcat [1]: 18.17 ± 0.5 s⁻¹; Km [2]: 26 ± 6 µM; kcat [2]: 3 ± 0.333 s⁻¹
